Experimental data reported in paper PMC8393709.

Legend:
[1] = molecular target: HPV16 E6 Y43E/F47R, full length (RLuc- and YFP-tagged); assay: BRET; details: parent: est. 150; read off a plot
[2] = molecular target: HPV16 E6N Y43E/F47R, amino acids 1 to 80 (RLuc- and YFP-tagged); assay: BRET; details: HEK 293T cells; RLuc- and YFP-tagged E6N fragments (amino acids 1 to 80); parent: est. 160; read off a plot
[3] = molecular target: HPV16 E6N Y43E/F47R, amino acids 1 to 80 (RLuc- and YFP-tagged); assay: BRET binding curve; details: HEK 293T cells; value at the highest YFP/RLuc point of each curve (mutant x about 860, E6N x about 880); non-specific level (E6N + UL44) about 65; parent: est. 250; read off a plot

| Substance | response [1] | response [2] | response [3] |
| --- | --- | --- | --- |
| HPV16 E6, wild-type, full length (RLuc-E6 and YFP-E6) (from UniProt P03126) Y43E; F47R | 53 a.u. (mBR) | – | – |
| HPV16 E6N, N-terminal domain of E6, amino acids 1 to 80 (RLuc-E6N and YFP-E6N) Y43E; F47R | – | 70 a.u. (mBR) | 120 a.u. (mBR) |
